Several values for one entry are separate records, joined by “and”; a condition that tells them apart may be missing. Identical values can stand only once.
Columns and labels:
[1] = molecular target: T1, IBB-depleted species of importin α3 (residues 64-521 of the intact protein) (human, UniProt O00629 64-521); assay: BLI; BLItz system; His-tagged Impα3 or ΔImpα3 immobilised on His-tag biosensors at 0.5 µM; NLS-Myc 1 to 7 µM in solution; 10x kinetics buffer of the manufacturer; 25 °C; kon and koff from a pseudo-first-order plot; settings: both partners purified
T1 construct: also called ΔImpα3; truncated species of Impα3; source: purified as previously described [18,19,20]
T1 sequence (looked up): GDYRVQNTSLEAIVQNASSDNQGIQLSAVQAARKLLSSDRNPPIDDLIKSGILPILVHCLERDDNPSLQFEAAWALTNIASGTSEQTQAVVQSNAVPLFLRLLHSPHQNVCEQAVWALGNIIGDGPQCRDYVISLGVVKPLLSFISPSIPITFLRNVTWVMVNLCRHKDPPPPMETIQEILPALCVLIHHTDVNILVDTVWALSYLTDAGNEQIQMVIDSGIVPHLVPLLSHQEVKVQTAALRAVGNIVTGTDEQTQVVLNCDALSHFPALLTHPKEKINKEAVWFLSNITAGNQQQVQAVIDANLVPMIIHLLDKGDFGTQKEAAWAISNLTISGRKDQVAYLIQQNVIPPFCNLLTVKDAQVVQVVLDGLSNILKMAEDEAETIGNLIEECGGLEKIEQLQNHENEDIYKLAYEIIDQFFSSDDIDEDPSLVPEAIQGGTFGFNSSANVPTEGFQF

[2] = molecular target: T2, human importin α3 isoform (residues 1-521) (human, UniProt O00629 1-521); assay: as above; settings: both partners purified
T2 construct: importin α3 (Impα3), human, residues 1-521, with the N-terminal IBB domain; also called Impα3; source: purified as previously described [18,19,20]
T2 sequence (looked up): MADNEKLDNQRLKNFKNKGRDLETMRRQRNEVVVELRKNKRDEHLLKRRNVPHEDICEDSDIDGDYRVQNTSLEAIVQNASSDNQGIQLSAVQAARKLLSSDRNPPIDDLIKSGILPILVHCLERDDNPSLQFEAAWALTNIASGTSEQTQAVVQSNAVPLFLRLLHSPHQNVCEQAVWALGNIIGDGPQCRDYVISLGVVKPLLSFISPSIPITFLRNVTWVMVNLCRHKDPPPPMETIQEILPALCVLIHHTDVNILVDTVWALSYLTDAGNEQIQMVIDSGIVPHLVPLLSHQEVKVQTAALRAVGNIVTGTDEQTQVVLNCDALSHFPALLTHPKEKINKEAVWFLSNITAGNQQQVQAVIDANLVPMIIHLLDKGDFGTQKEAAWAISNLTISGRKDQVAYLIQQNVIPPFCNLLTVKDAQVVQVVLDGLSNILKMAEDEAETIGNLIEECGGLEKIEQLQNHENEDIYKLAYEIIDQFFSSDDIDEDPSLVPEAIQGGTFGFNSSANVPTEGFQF

B1: NLS-Myc peptide (Ala310-Asn339 of human c-Myc) (peptide)
peptide: AAPPSTRKDYPAAKRVKLDSVRVLRQISNN
notes: human c-Myc, residues Ala310-Asn339: canonical NLS Pro320-Asp328 with the flanking residues of native Myc; also called the peptide; source: synthetic peptide, produced by NZYtech (Lisbon, Portugal), purity larger than 95%
Kd [1]: 60 ± 30 nM
Kd [2]: 500 nM and 600 nM

From paper PMC9739371, “Deciphering the Binding of the Nuclear Localization Sequence of Myc Protein to the Nuclear Carrier Importin α3” (International Journal of Molecular Sciences, 2022)
